# In patent US20180346555A1 (Regeneron, published 2018):
# What was measured:
# [1] = target: T1, Hazel (Cor A 1, MyBiosource, Cat# MBS5304600) (Hazel, UniProt Q08407 2-160, limits assumed); assay: SPR Biacore 4000, mAb captured by anti-human Fc, 25 C;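 further: allergen analyte binding to captured, purified anti-Bet v 1 monoclonal antibodies, SPR in HEPES-buffered saline running buffer with EDTA and Tween-20 at pH 7.4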
# T1 construct: Bought reagent
# T1 sequence (looked up): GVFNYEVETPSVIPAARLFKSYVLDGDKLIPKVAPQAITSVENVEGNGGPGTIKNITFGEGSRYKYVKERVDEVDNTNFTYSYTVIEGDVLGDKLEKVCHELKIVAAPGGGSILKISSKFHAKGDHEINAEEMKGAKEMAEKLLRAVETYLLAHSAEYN
# [2] = target: T2, natural Bet v 1 (Betula verrucosa (Betula pendula), UniProt P15494 2-160); assay: SPR Biacore 4000, mAb captured on anti-human Fc, 37C;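 further: kinetic rate constants from SPR sensorgrams fitted to a 1:1 model with mass transport limitation, HBS-ET buffer pH 7.4, KD and t½ derived from the rate constants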
# T2 construct: Bought natural protein; also called nBet v 1
# T2 chain: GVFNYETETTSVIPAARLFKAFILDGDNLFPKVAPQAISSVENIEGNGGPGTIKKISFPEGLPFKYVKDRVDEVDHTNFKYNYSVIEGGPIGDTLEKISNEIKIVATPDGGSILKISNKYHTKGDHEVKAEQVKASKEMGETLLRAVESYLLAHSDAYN
# [3] = target: T2, natural Bet v 1; assay: SPR Biacore 4000, mAb captured on anti-human Fc, 37C; 37 C;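 on 100 nM natural Bet v 1 Bound (RU): kinetic rate constants from SPR sensorgrams fitted to a 1:1 model with mass transport limitation, HBS-ET buffer pH 7.4, KD and t½ derived from the rate constants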;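 on t½: kinetic rate constants from SPR sensorgrams fitted to a 1:1 model with mass transport limitation, HBS-ET buffer pH 7.4, KD and t½ derived from the rate constants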
# [4] = target: T2, natural Bet v 1; assay: SPR Biacore 4000, mAb captured on anti-human Fc, 25C;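 further: purified anti-Bet v 1 mAbs probed with natural Bet v 1 in HBS-ET buffer (HEPES, NaCl, EDTA, Tween-20) at pH 7.4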
Binder,100 nM Analyte Bound (RU) [1] [RU],binding result [1],also measured
"H4H17067P2 (antibody, human IgG4, V domains shown, Fully human antibody with human IgG4 Fc (H4H prefix)) VH: EVQLVQSGAEVKKPGESLKISCSGSGYRFTNYWIAWVRQMPGKGLEWMGLIHPDDSDIRYSPSFQGQVTFSVDKSINTAYLQWSSLKASDTAMYYCTRQDGILWSHNAWFDPWGQGTLVTVSS VL: not shown",-1,,
"H4H17045P2 (antibody, human IgG4, V domains shown, Fully human antibody with human IgG4 Fc (H4H prefix)) VH: EVQLVESGGGLVQPGVSLRLSCVASGFTFSNYDITWIRQIPGKGLEWVSRISGSGGSTYFADSVKGRFIISRDNSKNTVYMQMNSLRAEDSAVYYCARRDSVLFSMNSWLDPWGQGTLVTVSS VL: not shown",0,no binding (tested: 100 nM),
"H4H16979P (antibody, human IgG4, V domains shown, Fully human antibody with human IgG4 Fc (H4H prefix)) VH: QVQLVQSGAEVKKPGASVKVSCKASGYTFIAYYLHWVRQAPGQGLEWMGLLNPYTGGSYYTQKFQGRVTMTRDTSIDTAYMELNSLRSDDTAIYYCARDKRSYYIPYAFEIWGQGTMVTVSS VL: not shown",0,no binding (tested: 100 nM),
"H4H17015P (antibody, human IgG4, V domains shown, Fully human antibody with human IgG4 Fc (H4H prefix)) VH: QVQLQESGPGLVKPSQTLSLTCTVSGGSISSADHYWSWIRQQPGKGLEWIGYISYRGTTYYNPTLESRVSISVDTFKNQFSLMLHSVTVADTAVYYCAKVLQGLVRFRDYGFDVWGQGTTVTVSS VL: DIQLTQSPPFLSASVGDRVTITCWASQDISSYLAWYQQNPGKSPKLLIYDAFTLHTGVPSRFSGSGSGTEFTLTISSLQPEDFATFYCQHLYSFPFTFGPGTKVDIK",1,no binding (tested: 100 nM),
"H4H17038P2 (antibody, human IgG4 S228P, kappa, V domains shown, human IgG4 Fc; also called REGN5714; MAB3) VH: EVQLVESGGDLVQPGGSLRLSCAASGFTFSSYEMNWVRQAPGKGLEWVSFISDSSSNIYYADSVKGRFTISRDNAKKSLYLQMTSLRAEDTAVYYCAREAIGSTSFDNWGQGTLVTVSS VL: EIVMTQSPATLSVSPGERATLSCRASQSVSSSLAWYQQKPGQAPRRLIYSASTRATGIPARFSGSGSGTEFTLTISSLQSEDFAIYYCHQYNNWPLTFGGGTKVEIKR",0,no binding (tested: 100 nM),
"H4H17027P (antibody, human IgG4, V domains shown, Fully human antibody with human IgG4 Fc (H4H prefix)) VH: EVQLVESGGGLVQPGGSLRLSCAASGFTFRNYAMHWVRQAPGEGLEWVAAIYRNSDSIDYADSVKGRFTISRDNAKNSLYLQMNSLKTEDTALYYCAKDEGFLEYFDSWGQGTLVTVSS VL: EIVLTQSPGTLSLSPGERASLSCRASQSVSSSFLAWYQQKPGQAPRLLIYGVSSRFIGIPDRFSGGGSGTDFTLTITRLEPEDFAVYYCQQYGRSPWTFGQGTKVEIK",0,no binding (tested: 100 nM),
"H4H16992P (antibody, human IgG4 S228P, kappa, V domains shown, human IgG4 Fc; also called REGN5713; MAB1) VH: QVQLQESGPGLVKPSETLSLTCSVSGGSITNYFWTWIRQSPGKGLEWIGYIYYSGGTNYNPSLKSRVTISIDTSKNQFSLNMNSVTAADTAVYYCAGSYYYGVDVWGQGTTVTVSS VL: EIVLTQSPATLSLSPGERATLSCRASQSIKSFLAWYRQKPGQAPRLLIYDASNRPTGIPARFSGSGSGTDFTLTINSLESEDFAVYFCQQRNNWPFTFGPGTKVDIKR",0,no binding (tested: 100 nM),
"H4H17033P (antibody, human IgG4, V domains shown, Fully human antibody with human IgG4 Fc (H4H prefix)) VH: QVQLVQSGAEVKKPGASVKVSCKASGYTFAAHYMHWVRQAPGQGLEWMGWINTYTGGTNYGQKFQGRVTMTRDTSITTAYMELSRLRSDDTAVYYCARDRRNWNFVFEYWGQGTLVTVSS VL: DIQMTQSPSSLSASVGDRVTISCRASQNIKNYLNWYQQKPGKAPKLLIYEASNLQSGAPSRFSGSGSGTDFTLTISSLEPEDFATYYCQQSFSIPWTFGQGTKVEIK",0,no binding (tested: 100 nM),
"H4H16987P (antibody, human IgG4 S228P, kappa, V domains shown, human IgG4 Fc; also called MAB4) VH: EVQLVESGGGLVQPGGSLRLSCAASGFTVSSNSMSWVRQAPGEGLEWVSVIFSGGITYYSDSVKGRFTISRHNSKNTLYLQMNSLRTEDTAVYYCARHSNWNFDAFDIWGQGTMVTVSS VL: DIQMTQSPSSLSASVGDRVTITCRASQSFDTYLNWYQQKPGKAPNLLIYATSSLQSGVPSRFSGSGSGTDFTLTISSLQPEDFGTYYCQQSYSIPYTFGQGTKLEIKR",0,no binding (tested: 100 nM),
"H4H17028P (antibody, human IgG4, V domains shown, Fully human antibody with human IgG4 Fc (H4H prefix)) VH: QVQLVESGGGVVQPGRSLRLSCAASGFTFSRYAIHWVRQAPGKGLEWVAVISYDGDDKYYGDSVKGRFTISRDNSKTMVYLHMNSLRTEDTAVYYCAKDGYSLYGKDYFDYWGQGTLVTVSS VL: EIVLTQSPGTLPLSPGERATLSCRASQSITNSYLAWYQQKPDQAPRLLIYGASSRATGIPDRFSGSESGTDFTLTISRLEPEDFAVYYCQQYVRSPWTFGQGTKVEIK",0,no binding (tested: 100 nM),
"H4H16971P (antibody, human IgG4, V domains shown, Fully human antibody with human IgG4 Fc (H4H prefix)) VH: QVQLVESGGGVVQPGRSLRLSCAASGFTFSSYGLHWVRQAPGKGLEWVAVISDDGSYKFYADSMKGRFTISRDNSKNTLYLQMNSLRAEDTAVYYCAKDRGRSGWYYFDYWGQGTLVTVSS VL: not shown",0,no binding (tested: 100 nM),
"H4H17031P (antibody, human IgG4, V domains shown) VH: QVQLQQWGAGLLKPSETLSLTCVVYGESFGNYHWNWIRQSPGKRLEWIGEINQNGHTNYNPSLKSRVTISVDTSKIQFSLRLNSVTAADTAVYFCARGHNYVNSYFGLDVWGQGTTVTVSS VL: EIVMTQSPATLSVSPGERATLSCRTSQSVSISLAWYQRKPGQAPRLLIFGSSTRATGVPARFSGSGSGTEFTLTISSLQSEDFAVYYCQQYNNWPYTFGQGTKLEIK",,,100 nM natural Bet v 1 Bound (RU) [2]: 63 RU; t½ [2]: 2.1 min; Kd [3]: 27.9 nM; koff [3]: 0.00544 s⁻¹; kon [3]: ~195000 M⁻¹ s⁻¹; 100 nM natural Bet v 1 Bound (RU) [4]: 54 RU; Kd [4]: 13.5 nM; koff [4]: 0.00168 s⁻¹; kon [4]: 124000 M⁻¹ s⁻¹; t½ [4]: 6.8 min
"H4H17031P (antibody, human IgG4, V domains shown, Fully human antibody with human IgG4 Fc (H4H prefix)) VH: QVQLQQWGAGLLKPSETLSLTCVVYGESFGNYHWNWIRQSPGKRLEWIGEINQNGHTNYNPSLKSRVTISVDTSKIQFSLRLNSVTAADTAVYFCARGHNYVNSYFGLDVWGQGTTVTVSS VL: EIVMTQSPATLSVSPGERATLSCRTSQSVSISLAWYQRKPGQAPRLLIFGSSTRATGVPARFSGSGSGTEFTLTISSLQSEDFAVYYCQQYNNWPYTFGQGTKLEIK",0,no binding (tested: 100 nM),
"H4H16991P (antibody, human IgG4, V domains shown, Fully human antibody with human IgG4 Fc (H4H prefix)) VH: QVQLVQSGAEVRKPGASVKVSCKASGYTFTGYYLHWVRQAPGQGLEWMGLINPNTGGTNFAQKFQGRVTMTRDSSISAAYMELSRLRSDDTAVYYCARQHWNRYFDNWGQGTLVTVSS VL: DIQMTQSPSTLSASVGDRVTITCRASQSVGNWLAWYQQKPGKAPKLLIQEASSIESGVPSRFSGSGSGTEFTLIVSSLQPDDFATYYCQQYNSYSWTFGHGTKVEIK",0,no binding (tested: 100 nM),
"H4H17001P (antibody, human IgG4, V domains shown, Fully human antibody with human IgG4 Fc (H4H prefix)) VH: QVQLVESGGGLVKPGGSLRLSCAASGFTFSDYYMNWIRQAPGKGLEWISLISSSGSAIYYSDSVKGRFTISRDNARKSLYLQVNSLRAEDTAVYYCARDRGEWALGAYYYGLDVWGQGTTVTVSS VL: DIVMTQSPLSLPVTPGEPASISCRSSQSLLHSDGYNYLDWYLQKSGQSPQLLIYLGSNRASGVPDRFSGSGSGTDFTLKISRMEAEDVGVYYCMQALQTPYTFGQGTKLEIK",0,no binding (tested: 100 nM),
"H4H17082P2 (antibody, human IgG4 S228P, kappa, V domains shown, human IgG4 Fc; also called REGN5715; MAB2) VH: QVQLVQSGAEVKKPGASVKVSCKASGYTFISYNIFWVRQATGQGLDWMGWMNPFRNNAGYAQKFQGRVTVTWDTSISTAYMELSSLSSEDTAIYYCAREHGSSWGFFDYWGQGTLVTVSS VL: not shown",20,,
